Entries after “also recorded” stand apart in the source; their conditions may differ. Where no end group is shown, it is not given here.
System: 22Rv.1 xenograft tumor
Assay: 22Rv.1 tumor xenograft study
Type: in vivo, athymic nude mice
Conditions: for tumor growth inhibition in vivo: xenografts of single 22Rv.1 clones stably expressing the peptide
Protocol: All animal experiments were performed according to European and German statutory regulations. For generation of xenograft models 5×10^6 LNCaP cells were resuspended in a solution of 50% Matrigel® (BD Bioscience, Heidelberg, Germany) in PBS or 5×10^6 22Rv.1 cells in 100 µl of PBS were subcutaneously injected into both flanks of 6–8 week-old athymic nude mice. Tumor size was measured with a caliper every week. Tumors derived from the injection of stable clones overexpressing the Bag-1 peptide were analyzed over a period of 9 weeks while tumors from cells transfected with the empty expression vector or expressing the N-terminal, the C-terminal and the ΔN-peptide were analyzed over 5 weeks. Tumor size was assessed measuring three perpendicular diameters according to the formula: V = (1/6) [π] (d1d2d3), where π is a mathematic constant and d1, d2 and d3 represent the three spatial dimensions (width, depth and height). Mice were euthanized by cervical dislocation and the tumors removed for further analysis.
Figure 4 The Bag-1 peptide inhibits prostate cancer cell growth in vivo. A. Stable clones of 22Rv.1 cells show reduced cell viability in vitro. Stable clones were seeded in a 96-well plate and the cell number in each well was estimated by measuring the ratio between the wavelength of excitation and emission 560/590 nm using the CellTiter-Blue™ proliferation assay. The bar charts represent the mean of at least four independent experiments ±SD (*p<0.05). B. Determination of the level of the Bag-1 expressed in the 22Rv.1 clones. Cellular extracts of 22v.1 stable clones were subjected to Western blot analysis. An anti-HA antibody was used to detect the peptide and an anti-β-actin antibody for equal loading control. C-D. The Bag-1 peptide reduces 22Rv.1 prostate tumor cell growth in vivo. Six-week old athymic nude mice were injected subcutaneously in both flanks with 5×10^6 cells of each stable clone. Tumor size was measured once per week using a caliper and expressed as tumor volume in mm^3. Shown are (C) the tumor volumes of clones transfected with empty expression vector and (D) clones expressing the Bag-1 peptide. Each point represents the mean volume and standard deviation of at least 5 to 10 tumors. E. Xenografts of stable clones expressing the Bag-1 peptide show increased apoptosis. Five-micron sections of formalin-fixed, paraffin-embedded tumor tissues were subjected to immunohistochemistry. Nuclei are stained blue-purple with hematoxylin while apoptotic cells detected with the TUNEL assay are stained brown. Representative sections of xenografts obtained from each 22Rv.1 stable clone were acquired with an Axioscop microscope (Zeiss). V: stands for empty vector expressing clone and P: peptide expressing clone.
Figure 5 An N-terminal unfolded fragment of the Bag-1 peptide is sufficient to reduce tumor cell growth. A. Schematic diagram of the Bag-1 peptide and its deletion mutants. The ubiquitin-like domain is represented in blue and the BAG domain in red. The numbers refer to the amino acid positions of the different domains. The amino acid residues are numbered following the numbering for Bag-1L. B. Prediction of the secondary structure of the Bag-1 peptide, showing an N-terminal β-hairpin from the ubiquitin-like domain (blue) and a C-terminal α-helix from the BAG domain (red). C. Normalized circular dichroism spectra of the Bag-1 peptides. 30 µM of the Bag-1 peptide were measured in 20 mM KHPO4 buffer, pH 6.8 (black line). Its α-helical content was estimated to be approximately 25% by deconvolution of the spectra (red line). 12 µM of the N-term peptide (green line) and 11 µM of C-term (blue line) were measured under the same conditions. D. ^1H^15N-HSQC NMR spectrum of ^15N-labeled Bag-1 peptide (202–269) in 20 mm KHPO4 buffer, pH 6.8, at 23°C. […] The Hδ and Hε side chain signals of asparagine and glutamine are connected by thin lines. […]

ΔUbi peptide: Bag-1 peptide lacking the ubiquitin-like domain portion (Bag-1L 220–269) (KKNSPQEEVELKKLKHLEKSVEKIADQLEELNKELTGIQQGFLPKDLQAE; not fully specified)
tumor growth inhibition in vivo: This effect was not seen

C-terminal peptide: 28 C-terminal fragment of the Bag-1 peptide (Bag-1L 241–269) (EKIADQLEELNKELTGIQQGFLPKDLQAE; not fully specified)
tumor growth inhibition in vivo: This effect was not seen

N-terminal peptide: N-terminal 40 residues of the Bag-1 peptide (Bag-1L 202–241) (TPLSALGIQDGCRVMLIGKKNSPQEEVELKKLKHLEKSVE; not fully specified)
tumor growth inhibition in vivo: reduces tumor growth in vivo; also recorded: growth inhibitory action of the peptides was also confirmed in xenograft models

B1: Bag-1 peptide: internal sequence of 68 amino acids of Bag-1 (Bag1-L 202–269), HA-tagged, expressed from pcDNA3 (peptide)
chain: TPLSALGIQDGCRVMLIGKKNSPQEEVELKKLKHLEKSVEKIADQLEELNKELTGIQQGFLPKDLQAE
modifications: also: HA tag, end not given here
tumor volume (22Rv.1 cells expressing the peptide (P42, P25 and P29), 9 weeks, empty vector: average 1.2 cm^3 in 4–8 weeks): 0.4 cm^3
Tumor weight, clone P25 (22Rv.1 clone P25, termination 7–9 weeks, mean and SD of 4–10 tumors, vector clones 1.24–1.73 g): 0.31 ± 0.14 g
Tumor weight, clone P29 (22Rv.1 clone P29, termination 9 weeks, mean and SD of 4–10 tumors, vector clones 1.24–1.73 g): 0.42 ± 0.17 g
Tumor weight, clone P42 (22Rv.1 clone P42, termination 9 weeks, mean and SD of 4–10 tumors, vector clones 1.24–1.73 g): 0.38 ± 0.20 g
tumor condition (22Rv.1 peptide clone 25, mice euthanized earlier than 9 weeks): the tumors were necrotic

From PMC3462190, “A Peptidic Unconjugated GRP78/BiP Ligand Modulates the Unfolded Protein Response and Induces Prostate Cancer Cell Death” (PLoS ONE, 2012)
